Data taken from patent US20240116985A1 (published 2024).
Starred links: 1 amine or outer side, 2 acyl side, 3 side chain; linkers in the order of their positions; H or OH if unused. Positions of bridges follow the written chain, without caps; N, C: chain ends. Non-standard residues stand in square brackets, D forms with d. Primed or numbered codes have the meaning given here. PyrS2″ = (S)-3-amino-1-((pent-4-en-1-yloxy)carbonyl)pyrrolidine-3-carboxylic acid (stapling residue), C=CCCCOC(=O)N1CC[C@@](N[*:1])(C(=O)[*:2])C1; SeN″ = (S)-5-(((allyloxy)carbonyl)(methyl)amino)-2-amino-2-methylpentanoic acid (stapling residue), C=CCOC(=O)N(C)CCC[C@](C)(N[*:1])C(=O)[*:2]; B5(16) = 2-amino-2-(pent-4-en-1-yl)hept-6-enoic acid = 2,2-bis(4-pentenyl)glycine (stitching residue), C=CCCCC(CCCC=C)(N[*:1])C(=O)[*:2]; B5(23) = 2-amino-2-(pent-4-en-1-yl)hept-6-enoic acid (2,2-bis(4-pentenyl)glycine), stitching residue, C=CCCCC(CCCC=C)(N[*:1])C(=O)[*:2]; B5(4) = 2,2-bis(4-pentenyl)glycine = 2-amino-2-(pent-4-en-1-yl)hept-6-enoic acid (stitching residue), C=CCCCC(CCCC=C)(N[*:1])C(=O)[*:2]; B5(3) = 2,2-bis(4-pentenyl)glycine (stitching residue), C=CCCCC(CCCC=C)(N[*:1])C(=O)[*:2]; Phe(3-COOH) = N[C@@H](Cc1cccc(C(=O)O)c1)C(=O)O; Phe(3-F) = N[C@@H](Cc1cccc(F)c1)C(=O)O; His(τ-Me) = Cn1cnc(C[C@H](N)C(=O)O)c1; Bta = N[C@@H](Cc1csc2ccccc12)C(=O)O; αAllylPro = C=CC[C@@]1(C(=O)O)CCCN1; tBuAla = CC(C)(C)C[C@H](N)C(=O)O; 3Thi = N[C@@H](Cc1ccsc1)C(=O)O; S8 = C=CCCCCCC[C@](C)(N)C(=O)O; NMeS = CN[C@@H](CO)C(=O)O; Aib = CC(C)(N)C(=O)O

T1: full-length beta-Catenin (Uniprot ID P35222) (Homo sapiens (Human), UniProt P35222 1-781)
T1 construct: also called bCat; B-Catenin
T1 sequence: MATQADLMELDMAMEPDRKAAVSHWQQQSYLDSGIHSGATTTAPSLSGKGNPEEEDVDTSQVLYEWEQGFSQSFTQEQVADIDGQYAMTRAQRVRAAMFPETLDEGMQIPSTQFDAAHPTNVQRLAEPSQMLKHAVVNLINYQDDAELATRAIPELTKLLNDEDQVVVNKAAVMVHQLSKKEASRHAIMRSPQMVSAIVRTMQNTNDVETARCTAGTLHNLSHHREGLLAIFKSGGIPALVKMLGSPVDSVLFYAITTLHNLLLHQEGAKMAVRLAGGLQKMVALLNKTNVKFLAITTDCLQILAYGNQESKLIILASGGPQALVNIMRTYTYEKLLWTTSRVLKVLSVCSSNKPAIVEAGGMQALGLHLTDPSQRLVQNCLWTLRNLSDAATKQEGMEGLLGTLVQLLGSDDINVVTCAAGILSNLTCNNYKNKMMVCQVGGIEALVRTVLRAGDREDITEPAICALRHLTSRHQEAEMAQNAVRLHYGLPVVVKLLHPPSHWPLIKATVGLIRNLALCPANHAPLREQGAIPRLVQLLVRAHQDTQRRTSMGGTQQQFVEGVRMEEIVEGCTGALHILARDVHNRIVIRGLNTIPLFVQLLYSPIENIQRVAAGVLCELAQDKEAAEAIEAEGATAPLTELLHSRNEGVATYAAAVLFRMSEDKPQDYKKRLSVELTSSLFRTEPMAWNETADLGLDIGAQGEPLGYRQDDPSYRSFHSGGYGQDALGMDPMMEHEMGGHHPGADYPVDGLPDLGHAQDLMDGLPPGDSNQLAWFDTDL

T2: B-cat-Halo (beta-catenin HaloTag fusion expressed in HEK293 cells) (UniProt P35222 1-781, HaloTag NanoBRET 618 Ligand bound to the HaloTag)
T2 sequence (looked up): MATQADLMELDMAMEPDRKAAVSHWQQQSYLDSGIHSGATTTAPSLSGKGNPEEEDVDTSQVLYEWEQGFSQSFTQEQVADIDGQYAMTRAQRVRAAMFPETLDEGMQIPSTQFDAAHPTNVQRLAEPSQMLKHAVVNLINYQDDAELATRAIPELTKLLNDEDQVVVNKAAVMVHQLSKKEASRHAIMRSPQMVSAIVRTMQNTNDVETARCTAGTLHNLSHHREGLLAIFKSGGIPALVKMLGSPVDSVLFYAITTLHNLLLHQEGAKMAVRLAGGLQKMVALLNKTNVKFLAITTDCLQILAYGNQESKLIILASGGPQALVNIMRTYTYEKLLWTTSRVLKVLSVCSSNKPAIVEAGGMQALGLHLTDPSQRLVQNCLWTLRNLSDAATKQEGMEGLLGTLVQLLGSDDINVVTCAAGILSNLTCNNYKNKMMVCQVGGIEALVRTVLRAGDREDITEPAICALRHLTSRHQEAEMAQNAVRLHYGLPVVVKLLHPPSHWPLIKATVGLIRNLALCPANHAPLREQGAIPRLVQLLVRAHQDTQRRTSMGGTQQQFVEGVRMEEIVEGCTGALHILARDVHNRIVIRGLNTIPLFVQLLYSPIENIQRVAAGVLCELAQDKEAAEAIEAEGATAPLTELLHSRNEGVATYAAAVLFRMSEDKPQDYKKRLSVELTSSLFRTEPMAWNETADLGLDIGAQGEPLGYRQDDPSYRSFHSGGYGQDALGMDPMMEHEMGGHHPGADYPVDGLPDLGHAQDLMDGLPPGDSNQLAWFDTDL

T3: full-length beta-Catenin (Uniprot ID P35222) (Homo sapiens (Human), UniProt P35222 2-781)
T3 construct: also called bCat; B-Catenin
T3 sequence: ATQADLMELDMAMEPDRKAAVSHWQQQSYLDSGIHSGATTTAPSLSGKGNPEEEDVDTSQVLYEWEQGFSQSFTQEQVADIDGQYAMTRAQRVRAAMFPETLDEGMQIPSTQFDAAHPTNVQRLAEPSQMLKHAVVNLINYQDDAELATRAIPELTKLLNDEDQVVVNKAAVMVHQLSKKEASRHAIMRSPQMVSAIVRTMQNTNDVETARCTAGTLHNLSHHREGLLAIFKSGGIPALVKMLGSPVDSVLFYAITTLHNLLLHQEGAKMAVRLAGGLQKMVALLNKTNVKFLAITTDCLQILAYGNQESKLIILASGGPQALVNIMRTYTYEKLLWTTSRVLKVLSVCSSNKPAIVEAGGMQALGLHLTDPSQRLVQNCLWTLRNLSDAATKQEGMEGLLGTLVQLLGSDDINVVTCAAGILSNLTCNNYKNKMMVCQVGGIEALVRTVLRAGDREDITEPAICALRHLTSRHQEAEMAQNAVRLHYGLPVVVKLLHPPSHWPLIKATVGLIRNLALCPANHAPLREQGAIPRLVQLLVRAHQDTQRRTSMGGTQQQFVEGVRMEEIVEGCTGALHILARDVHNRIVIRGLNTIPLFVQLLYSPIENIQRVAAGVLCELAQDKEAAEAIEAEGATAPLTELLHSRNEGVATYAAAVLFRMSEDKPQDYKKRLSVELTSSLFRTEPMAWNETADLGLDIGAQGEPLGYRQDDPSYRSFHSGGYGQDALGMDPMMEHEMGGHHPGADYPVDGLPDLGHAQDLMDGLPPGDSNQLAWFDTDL


Key:
[1] = target: T1, full-length beta-Catenin (Uniprot ID …); test: fluorescence polarization competition; full-length beta-catenin with 5FAM-TCF4(10-53) probe as competitor
Procedure: (§1) The plate was incubated protected from light for 60 minutes at 20° C. prior to read. Reads were performed on a CLARIOstar plate reader (BMG Labtech) in duplicate, and data were fitted to a 1:1 binding model with hill slope using an in-house script. All provided concentrations are final concentrations.

[2] = target: T2, B-cat-Halo (beta-catenin HaloTag fusion …); test: cell-based or functional assay
[3] = target: T3, full-length beta-Catenin (Uniprot ID …); test: fluorescence polarization competition; 10 nM full-length beta-catenin + 10 nM 5FAM-TCF4(10-53) probe, peptide titrated
Procedure: as §1

Row | EC50 [3] [nM] | Binder | other results
1 | 105 | Ac-[αAllylPro]DA[B5(23)]DEAAFT[S8]F[Bta]Q-NH2 (staple 1-4, 4-11, Stapled (stitched) peptide) [I-423] | –
2 | 50 | Ac-[αAllylPro]DV[B5(23)]DEAAFQ[S8]F[Bta]Q-NH2 (staple 1-4, 4-11, Stapled (stitched) peptide) [I-410] | –
3 | 128 | Ac-[αAllylPro]DA[B5(23)]DEAAFT[S8]F[Bta]H-NH2 (staple 1-4, 4-11, Stapled (stitched) peptide) [I-420] | –

The next lines start with the binder.

Row | Binder | EC50 [3] [nM] | other results
4 | Ac-[αAllylPro]DL[B5(4)]DEAAFN[S8]F[Bta][dT]-NH2 (staple 1-4, 4-11; also: later eluting HPLC peak (staple isomer), Stapled peptide; also called Ac-PL3-Asp-Leu-B5-Asp-Glu-Ala-Ala-Phe-Asn-S8-Phe-BztA-dThr-NH2) [I-755] | – | IC50 [1]: 88 nM
5 | Ac-[αAllylPro]DL[B5(4)]DEAAFN[S8]F[Bta][dN]-NH2 (staple 1-4, 4-11; also: later eluting HPLC peak (staple isomer), Stapled peptide; also called Ac-PL3-Asp-Leu-B5-Asp-Glu-Ala-Ala-Phe-Asn-S8-Phe-BztA-dAsn-NH2) [I-758] | – | IC50 [1]: 47 nM
6 | Ac-[αAllylPro]DL[B5(4)]DEAAFN[S8]F[Bta][NMeS]-NH2 (staple 1-4, 4-11; also: earlier eluting HPLC peak (staple isomer), Stapled peptide; same description as I-760, earlier eluting HPLC peak (staple isomer composition); also called Ac-PL3-Asp-Leu-B5-Asp-Glu-Ala-Ala-Phe-Asn-S8-Phe-BztA-NMeS-NH2) [I-759] | – | IC50 [1]: 1530 nM
7 | Ac-[αAllylPro]D[tBuAla][B5(3)]NT[Aib]AFN[PyrS2″][3Thi][Bta]Q-NH2 (staple 1-4, 4-11) [I-2338] | – | NanoBRET Abs IC50 [2]: > 20000 nM
8 | Ac-[αAllylPro]DA[B5(23)]DEAAFQ[S8]F[Bta]Q-NH2 (staple 1-4, 4-11, Stapled (stitched) peptide) [I-406] | 94 | –
9 | Ac-[αAllylPro]DA[B5(23)]D[His(τ-Me)]AAFV[S8][Phe(3-F)][Bta]Q-NH2 (staple 1-4, 4-11, Stapled (stitched) peptide) [I-403] | 2130 | –
10 | Ac-[αAllylPro]DA[B5(16)]DHAAFQ[SeN″][Phe(3-F)][Bta]Q-NH2 (staple 1-4, 4-11; not fully specified; printed as Ac-PL3-Asp-Ala-B5-Asp-His-Ala-Ala-Phe-Gln-SeN-3FF-BztA-Gln-NH2, Stapled (stitched) peptide) [I-400] | 3590 | –
11 | XDAXDHAAFQXFXQ (not fully specified; as printed: Ac-PL3-Asp-Ala-B5-Asp-His-Ala-Ala-Phe-Gln-S8-3FF-BztA-Gln-NH2; N-terminal acetyl, C-terminal amide; staples PL3(1)-B5(4) and B5(4)-S8(11) by olefin metathesis, Stapled (stitched) peptide) [I-399] | 2500 | –
12 | XDAXDHAAFVXFXQ (not fully specified; as printed: Ac-PL3-Asp-Ala-B5-Asp-His-Ala-Ala-Phe-Val-S8-3FF-BztA-Gln-NH2; N-terminal acetyl, C-terminal amide; staples PL3(1)-B5(4) and B5(4)-S8(11) by olefin metathesis, Stapled (stitched) peptide) [I-397] | 2230 | –
13 | Ac-[αAllylPro]DA[B5(16)]DHAAFV[SeN″][Phe(3-F)][Bta]Q-NH2 (staple 1-4, 4-11; not fully specified; printed as Ac-PL3-Asp-Ala-B5-Asp-His-Ala-Ala-Phe-Val-SeN-3FF-BztA-Gln-NH2, Stapled (stitched) peptide) [I-398] | 2160 | –
14 | Ac-[αAllylPro]D[tBuAla][B5(3)]N[Phe(3-COOH)]AAFT[PyrS2″][3Thi][Bta]Q-NH2 (staple 1-4, 4-11) [I-2336] | – | NanoBRET Abs IC50 [2]: 14400 nM
